Our source for the Kd values is US20200199241A1 (Chugai, published 2020).

The chains are these.
B1: IgG1-F785 (antibody)
heavy: QVQLQESGPGLVKPSETLSLTCAVSGHSISHDHAWSWVRQPPGEGLEWIGFISYSGITNYNPSLQGRVTISRDNSKNTLYLQMNSLRAEDTAVYYCARSLARTTAMDYWGEGTLVTVSSASTKGPSVFPLAPSSKSTSGGTAALGCLVKDYFPEPVTVSWNSGALTSGVHTFPAVLQSSGLYSLSSVVTVPSSSLGTQTYICNVNHKPSNTKVDKKVEPKSCDKTHTCPPCPAPELLGGPSVFLFPPKPKDTLYISRTPEVTCVVVDVSHEDPEVKFNWYVDGVEVHNAKTKPREEQYNSTYRVVSVLTVHHQDWLNGKEYKCKVSNKALPAPIEKTISKAKGQPREPQVYTLPPSRDELTKNQVSLTCLVKGFYPSDIAVEWESNGQPENNYKTTPPVLDSDGSFFLYSKLTVDKSRWQQGNVFSCSVMHEALHYHYTQKSLSLSP
light: not shown
notes: EU numbering; copies: 2 + 2
B2: IgG1-F796 (antibody)
heavy: QVQLQESGPGLVKPSETLSLTCAVSGHSISHDHAWSWVRQPPGEGLEWIGFISYSGITNYNPSLQGRVTISRDNSKNTLYLQMNSLRAEDTAVYYCARSLARTTAMDYWGEGTLVTVSSASTKGPSVFPLAPSSKSTSGGTAALGCLVKDYFPEPVTVSWNSGALTSGVHTFPAVLQSSGLYSLSSVVTVPSSSLGTQTYICNVNHKPSNTKVDKKVEPKSCDKTHTCPPCPAPELLGGPSVFLFPPKPKDTLYISRTPEVTCVVVDVSHEDPEVKFNWYVDGVEVHNAKTKPREEQYNSTYRVVSVLTVLHQDWLMGKEYKCKVSNKALPAPIEKTISKAKGQPREPQVYTLPPSRDELTKNQVSLTCLVKGFYPSDIAVEWESNGQPENNYKTTPPVLDSDGSFFLYSKLTVDKSRWQQGNVFSCSVMHEALHYHYTQKSLSLSP
light: not shown
notes: EU numbering; copies: 2 + 2
B3: IgG1-F792 (antibody)
heavy: QVQLQESGPGLVKPSETLSLTCAVSGHSISHDHAWSWVRQPPGEGLEWIGFISYSGITNYNPSLQGRVTISRDNSKNTLYLQMNSLRAEDTAVYYCARSLARTTAMDYWGEGTLVTVSSASTKGPSVFPLAPSSKSTSGGTAALGCLVKDYFPEPVTVSWNSGALTSGVHTFPAVLQSSGLYSLSSVVTVPSSSLGTQTYICNVNHKPSNTKVDKKVEPKSCDKTHTCPPCPAPELLGGPSVFLFPPKPKDTLYISRTPEVTCVVVDVSHEDPEVKFNWYVDGVEVHNAKTKPREEQYNSTYRVVSVLTVLHQDWLGGKEYKCKVSNKALPAPIEKTISKAKGQPREPQVYTLPPSRDELTKNQVSLTCLVKGFYPSDIAVEWESNGQPENNYKTTPPVLDSDGSFFLYSKLTVDKSRWQQGNVFSCSVMHEALHYHYTQKSLSLSP
light: not shown
notes: EU numbering; copies: 2 + 2
B4: IgG1-F787 (antibody)
heavy: QVQLQESGPGLVKPSETLSLTCAVSGHSISHDHAWSWVRQPPGEGLEWIGFISYSGITNYNPSLQGRVTISRDNSKNTLYLQMNSLRAEDTAVYYCARSLARTTAMDYWGEGTLVTVSSASTKGPSVFPLAPSSKSTSGGTAALGCLVKDYFPEPVTVSWNSGALTSGVHTFPAVLQSSGLYSLSSVVTVPSSSLGTQTYICNVNHKPSNTKVDKKVEPKSCDKTHTCPPCPAPELLGGPSVFLFPPKPKDTLYITRTPEVTCVVVDVSHEDPEVKFNWYVDGVEVHNAKTKPREEQYNSTYRVVSVLQVEHADWLNGKEYKCKVSNKALPAPIEKTISKAKGQPREPQVYTLPPSRDELTKNQVSLTCLVKGFYPSDIAVEWESNGQPENNYKTTPPVLDSDGSFFLYSKLTVDKSRWQQGNVFSCSVMHEALHYHYTQKSLSLSP
light: not shown
notes: EU numbering; copies: 2 + 2
B5: IgG1-F794 (antibody)
heavy: QVQLQESGPGLVKPSETLSLTCAVSGHSISHDHAWSWVRQPPGEGLEWIGFISYSGITNYNPSLQGRVTISRDNSKNTLYLQMNSLRAEDTAVYYCARSLARTTAMDYWGEGTLVTVSSASTKGPSVFPLAPSSKSTSGGTAALGCLVKDYFPEPVTVSWNSGALTSGVHTFPAVLQSSGLYSLSSVVTVPSSSLGTQTYICNVNHKPSNTKVDKKVEPKSCDKTHTCPPCPAPELLGGPSVFLFPPKPKDTLYISRTPEVTCVVVDVSHEDPEVKFNWYVDGVEVHNAKTKPREEQYNSTYRVVSVLTVLHQDWLKGKEYKCKVSNKALPAPIEKTISKAKGQPREPQVYTLPPSRDELTKNQVSLTCLVKGFYPSDIAVEWESNGQPENNYKTTPPVLDSDGSFFLYSKLTVDKSRWQQGNVFSCSVMHEALHYHYTQKSLSLSP
light: not shown
notes: EU numbering; copies: 2 + 2
B6: IgG1-F788 (antibody)
heavy: QVQLQESGPGLVKPSETLSLTCAVSGHSISHDHAWSWVRQPPGEGLEWIGFISYSGITNYNPSLQGRVTISRDNSKNTLYLQMNSLRAEDTAVYYCARSLARTTAMDYWGEGTLVTVSSASTKGPSVFPLAPSSKSTSGGTAALGCLVKDYFPEPVTVSWNSGALTSGVHTFPAVLQSSGLYSLSSVVTVPSSSLGTQTYICNVNHKPSNTKVDKKVEPKSCDKTHTCPPCPAPELLGGPSVFLFPPKPKDTLYISRTPEVTCVVVDVSHEDPEVKFNWYVDGVEVHNAKTKPREEQYNSTYRVVSVLTVLHQDWLAGKEYKCKVSNKALPAPIEKTISKAKGQPREPQVYTLPPSRDELTKNQVSLTCLVKGFYPSDIAVEWESNGQPENNYKTTPPVLDSDGSFFLYSKLTVDKSRWQQGNVFSCSVMHEALHYHYTQKSLSLSP
light: not shown
notes: EU numbering; copies: 2 + 2
B7: IgG1-F798 (antibody)
heavy: QVQLQESGPGLVKPSETLSLTCAVSGHSISHDHAWSWVRQPPGEGLEWIGFISYSGITNYNPSLQGRVTISRDNSKNTLYLQMNSLRAEDTAVYYCARSLARTTAMDYWGEGTLVTVSSASTKGPSVFPLAPSSKSTSGGTAALGCLVKDYFPEPVTVSWNSGALTSGVHTFPAVLQSSGLYSLSSVVTVPSSSLGTQTYICNVNHKPSNTKVDKKVEPKSCDKTHTCPPCPAPELLGGPSVFLFPPKPKDTLYISRTPEVTCVVVDVSHEDPEVKFNWYVDGVEVHNAKTKPREEQYNSTYRVVSVLTVLHQDWLQGKEYKCKVSNKALPAPIEKTISKAKGQPREPQVYTLPPSRDELTKNQVSLTCLVKGFYPSDIAVEWESNGQPENNYKTTPPVLDSDGSFFLYSKLTVDKSRWQQGNVFSCSVMHEALHYHYTQKSLSLSP
light: not shown
notes: EU numbering; copies: 2 + 2
B8: IgG1-F793 (antibody)
heavy: QVQLQESGPGLVKPSETLSLTCAVSGHSISHDHAWSWVRQPPGEGLEWIGFISYSGITNYNPSLQGRVTISRDNSKNTLYLQMNSLRAEDTAVYYCARSLARTTAMDYWGEGTLVTVSSASTKGPSVFPLAPSSKSTSGGTAALGCLVKDYFPEPVTVSWNSGALTSGVHTFPAVLQSSGLYSLSSVVTVPSSSLGTQTYICNVNHKPSNTKVDKKVEPKSCDKTHTCPPCPAPELLGGPSVFLFPPKPKDTLYISRTPEVTCVVVDVSHEDPEVKFNWYVDGVEVHNAKTKPREEQYNSTYRVVSVLTVLHQDWLIGKEYKCKVSNKALPAPIEKTISKAKGQPREPQVYTLPPSRDELTKNQVSLTCLVKGFYPSDIAVEWESNGQPENNYKTTPPVLDSDGSFFLYSKLTVDKSRWQQGNVFSCSVMHEALHYHYTQKSLSLSP
light: not shown
notes: EU numbering; copies: 2 + 2
B9: IgG1-F789 (antibody)
heavy: QVQLQESGPGLVKPSETLSLTCAVSGHSISHDHAWSWVRQPPGEGLEWIGFISYSGITNYNPSLQGRVTISRDNSKNTLYLQMNSLRAEDTAVYYCARSLARTTAMDYWGEGTLVTVSSASTKGPSVFPLAPSSKSTSGGTAALGCLVKDYFPEPVTVSWNSGALTSGVHTFPAVLQSSGLYSLSSVVTVPSSSLGTQTYICNVNHKPSNTKVDKKVEPKSCDKTHTCPPCPAPELLGGPSVFLFPPKPKDTLYISRTPEVTCVVVDVSHEDPEVKFNWYVDGVEVHNAKTKPREEQYNSTYRVVSVLTVLHQDWLDGKEYKCKVSNKALPAPIEKTISKAKGQPREPQVYTLPPSRDELTKNQVSLTCLVKGFYPSDIAVEWESNGQPENNYKTTPPVLDSDGSFFLYSKLTVDKSRWQQGNVFSCSVMHEALHYHYTQKSLSLSP
light: not shown
notes: EU numbering; copies: 2 + 2
B10: IgG1-F790 (antibody)
heavy: QVQLQESGPGLVKPSETLSLTCAVSGHSISHDHAWSWVRQPPGEGLEWIGFISYSGITNYNPSLQGRVTISRDNSKNTLYLQMNSLRAEDTAVYYCARSLARTTAMDYWGEGTLVTVSSASTKGPSVFPLAPSSKSTSGGTAALGCLVKDYFPEPVTVSWNSGALTSGVHTFPAVLQSSGLYSLSSVVTVPSSSLGTQTYICNVNHKPSNTKVDKKVEPKSCDKTHTCPPCPAPELLGGPSVFLFPPKPKDTLYISRTPEVTCVVVDVSHEDPEVKFNWYVDGVEVHNAKTKPREEQYNSTYRVVSVLTVLHQDWLEGKEYKCKVSNKALPAPIEKTISKAKGQPREPQVYTLPPSRDELTKNQVSLTCLVKGFYPSDIAVEWESNGQPENNYKTTPPVLDSDGSFFLYSKLTVDKSRWQQGNVFSCSVMHEALHYHYTQKSLSLSP
light: not shown
notes: EU numbering; copies: 2 + 2
B11: IgG1-F786 (antibody)
heavy: QVQLQESGPGLVKPSETLSLTCAVSGHSISHDHAWSWVRQPPGEGLEWIGFISYSGITNYNPSLQGRVTISRDNSKNTLYLQMNSLRAEDTAVYYCARSLARTTAMDYWGEGTLVTVSSASTKGPSVFPLAPSSKSTSGGTAALGCLVKDYFPEPVTVSWNSGALTSGVHTFPAVLQSSGLYSLSSVVTVPSSSLGTQTYICNVNHKPSNTKVDKKVEPKSCDKTHTCPPCPAPELLGGPSVFLFPPKPKDTLYITRTPEVTCVVVDVSHEDPEVKFNWYVDGVEVHEAKTKPREEQYNSTYRVVSVLQVLHADWLNGKEYKCKVSNKALPAPIEKTISKAKGQPREPQVYTLPPSRDELTKNQVSLTCLVKGFYPSDIAVEWESNGQPENNYKTTPPVLDSDGSFFLYSKLTVDKSRWQQGNVFSCSVMHEALHYHYTQKSLSLSP
light: not shown
notes: EU numbering; copies: 2 + 2
B12: IgG1-F795 (antibody)
heavy: QVQLQESGPGLVKPSETLSLTCAVSGHSISHDHAWSWVRQPPGEGLEWIGFISYSGITNYNPSLQGRVTISRDNSKNTLYLQMNSLRAEDTAVYYCARSLARTTAMDYWGEGTLVTVSSASTKGPSVFPLAPSSKSTSGGTAALGCLVKDYFPEPVTVSWNSGALTSGVHTFPAVLQSSGLYSLSSVVTVPSSSLGTQTYICNVNHKPSNTKVDKKVEPKSCDKTHTCPPCPAPELLGGPSVFLFPPKPKDTLYISRTPEVTCVVVDVSHEDPEVKFNWYVDGVEVHNAKTKPREEQYNSTYRVVSVLTVLHQDWLLGKEYKCKVSNKALPAPIEKTISKAKGQPREPQVYTLPPSRDELTKNQVSLTCLVKGFYPSDIAVEWESNGQPENNYKTTPPVLDSDGSFFLYSKLTVDKSRWQQGNVFSCSVMHEALHYHYTQKSLSLSP
light: not shown
notes: EU numbering; copies: 2 + 2
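Further: test antibodies captured on a Protein L chip with human FcRn flowed over as analyte, KD obtained as the ratio of dissociation to association rate constants.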

The target of this experiment is T1, soluble human FcRn complexed with β2-microglobulin (human, UniProt P61769 21-119, limits assumed).
T1 construct: also called hFcRn
T1 sequence (chain, as listed by the source limits assumed, chain 1 of 2): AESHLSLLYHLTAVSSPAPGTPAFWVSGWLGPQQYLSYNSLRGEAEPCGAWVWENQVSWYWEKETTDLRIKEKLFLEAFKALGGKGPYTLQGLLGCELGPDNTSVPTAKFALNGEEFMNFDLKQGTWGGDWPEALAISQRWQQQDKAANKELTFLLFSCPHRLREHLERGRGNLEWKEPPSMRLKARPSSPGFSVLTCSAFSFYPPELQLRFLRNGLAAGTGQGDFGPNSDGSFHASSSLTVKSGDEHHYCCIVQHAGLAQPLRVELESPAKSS
T1 sequence (P61769 21-119 limits assumed, chain 2 of 2): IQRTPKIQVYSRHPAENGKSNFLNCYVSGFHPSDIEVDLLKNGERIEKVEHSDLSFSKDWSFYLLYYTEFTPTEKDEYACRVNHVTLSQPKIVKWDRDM
Put plainly: Biacore SPR, pH 7.0. (Surface plasmon resonance follows binding to a sensor surface in real time, without labels.)
As to B1, the Kd (in general, the concentration at which binding is half-saturated) was 740 nM.
For B2, binding was characterised by a dissociation constant (Kd) of 340 nM.
Under B3 stands 440 nM; under B4, 88 nM.
To B5 belongs 410 nM.
To B6 belongs 410 nM; to B7, 350 nM; to B8, 330 nM.
With B9, the Kd was 150 nM.
Under B10 stands 270 nM; under B11, 28 nM.
Under B12 stands 310 nM.
